According to article PMC3721995:
Ends that are not written are not given here. * marks the point of attachment. Biotin = O=C1N[C@H]2[C@H](CS[C@H]2CCCCC(=O)*)N1

Biological target: recombinant HIV-1 gp120BaL protein (HIV-1 (isolate BaL))
Test: ELISA; solid-phase ELISA; gp120BaL coated at 8 ug/ml (50 mM bicarbonate pH 9.6, 4°C, 16 h); biotinylated peptides at 30 ug/ml in 20 mM Tris-HCl pH 7.4, 0.05% Tween-20, 37°C, 60 min; detected with AP-streptavidin, read at 405 nm

Biotin-VEILYRGSWGTVCDD [SRCR1 peptide P5]
relative binding: 4

Biotin-GWLSHNCGHGEDAGV [SRCR1 peptide P19, biotinylated]
relative binding: 7.5

Biotin-GSGPIALDDVRCSGH [SRCR1 peptide P14]
relative binding: 1.5

Biotin-NCGHGEDAGVICSA (cysteine pairing not given here) [SRCR1 peptide P20]
relative binding: 1.5

Biotin-RGSWGTVCDDSWDTN [SRCR1 peptide P6]
relative binding: 4.5

Biotin-ALDDVRCSGHESYLW [SRCR1 peptide P15]
relative binding: 2
